Where “and” joins values, the source holds several entries; their conditions need not be identical. Identical values can stand only once.
What was measured:
[1] = target: T1, Solute carrier family 22 member 1 (Rattus norvegicus, UniProt Q63089); test: (§1) TP_TRANSPORTER: uptake (electrogenesis) in Xenopus laevis oocytes; type: functional, cell-based; details: oocyte
T1 sequence (Q63089 whole entry): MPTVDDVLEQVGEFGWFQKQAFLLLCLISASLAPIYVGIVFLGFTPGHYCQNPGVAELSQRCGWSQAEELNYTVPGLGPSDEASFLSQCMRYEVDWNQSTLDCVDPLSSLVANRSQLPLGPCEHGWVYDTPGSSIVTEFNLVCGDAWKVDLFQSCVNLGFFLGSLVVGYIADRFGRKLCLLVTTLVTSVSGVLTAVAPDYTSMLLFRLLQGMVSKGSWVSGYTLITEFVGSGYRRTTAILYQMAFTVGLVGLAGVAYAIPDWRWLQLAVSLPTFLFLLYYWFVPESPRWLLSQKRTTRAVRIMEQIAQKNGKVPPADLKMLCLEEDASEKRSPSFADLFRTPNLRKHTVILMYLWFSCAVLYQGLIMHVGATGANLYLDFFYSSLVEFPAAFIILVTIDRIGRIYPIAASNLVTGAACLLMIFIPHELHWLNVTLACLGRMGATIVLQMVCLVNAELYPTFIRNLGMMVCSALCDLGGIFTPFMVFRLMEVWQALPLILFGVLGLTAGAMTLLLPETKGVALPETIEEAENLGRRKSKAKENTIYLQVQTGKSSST

[2] = target: T1, Solute carrier family 22 member 1; test: TP_TRANSPORTER: uptake in Xenopus laevis oocytes; type: functional, cell-based; details: oocyte
[3] = substrate: NCCc1ccc(O)c(O)c1; test: cells, lysate or membranes named
[4] = substrate: NCCc1c[nH]cn1; test: cells, lysate or membranes named
[5] = substrate: CC(=O)OCC[N+](C)(C)C; test: as §1; type: functional, cell-based, Oocyte
[6] = substrate: NCCc1c[nH]c2ccc(O)cc12; test: as §1; type: functional, cell-based, Oocyte

For `NC[C@H](O)c1ccc(O)c(O)c1` [NOREPINEPHRINE], the Activity [1] was “substrate [+]”.

`C=C[C@H]1C[N@@]2CC[C@H]1C[C@H]2[C@H](O)c1ccnc2ccc(OC)cc12` [QUININE] was tested, and the Activity [2] was “is not a substrate [-]”.

In the case of `C=C[C@H]1C[N@@]2CC[C@H]1C[C@@H]2[C@@H](O)c1ccnc2ccc(OC)cc12` [QUINIDINE], the Activity [2] is reported as “is not a substrate [-]”.

B1: Solute carrier family 22 member 1 (Rattus norvegicus) (protein)
chain: MPTVDDVLEQVGEFGWFQKQAFLLLCLISASLAPIYVGIVFLGFTPGHYCQNPGVAELSQRCGWSQAEELNYTVPGLGPSDEASFLSQCMRYEVDWNQSTLDCVDPLSSLVANRSQLPLGPCEHGWVYDTPGSSIVTEFNLVCGDAWKVDLFQSCVNLGFFLGSLVVGYIADRFGRKLCLLVTTLVTSVSGVLTAVAPDYTSMLLFRLLQGMVSKGSWVSGYTLITEFVGSGYRRTTAILYQMAFTVGLVGLAGVAYAIPDWRWLQLAVSLPTFLFLLYYWFVPESPRWLLSQKRTTRAVRIMEQIAQKNGKVPPADLKMLCLEEDASEKRSPSFADLFRTPNLRKHTVILMYLWFSCAVLYQGLIMHVGATGANLYLDFFYSSLVEFPAAFIILVTIDRIGRIYPIAASNLVTGAACLLMIFIPHELHWLNVTLACLGRMGATIVLQMVCLVNAELYPTFIRNLGMMVCSALCDLGGIFTPFMVFRLMEVWQALPLILFGVLGLTAGAMTLLLPETKGVALPETIEEAENLGRRKSKAKENTIYLQVQTGKSSST
In the case of B1, the Km [3] is reported as 19.4 µM and 51 µM, the Km [4] is reported as 98.6 µM and the Km [5] is reported as 46.8 µM. For the same molecule, the Km [6] was 37.6 µM.
